From the nanobody polyreactivity screen of Harvey et al. (2022)

Assay: yeast display, Sf9 membrane polyspecificity reagent, FACS + sequencing; frameworks hold sequencing errors
Summary of the method: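 Polyreactivity labels are assigned by the sorting gate from which each nanobody was recovered. The gates were low and high (top ~1%), set on anti-HA fluorescence for expression and streptavidin fluorescence for reagent binding. Before sorting, galactose-induced (36–48 hours) yeast display cells were stained for 1 hour at 4 °C with 10% biotinylated, detergent-solubilized Sf9 membrane reagent.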

With “QVQLVESGGGLVQAGGSLRLSCAASGTTFGYNAMGWYRQAPGKERELVAAITSGGSTNYADSVKGRFTISRDNAKNTVYLQMNSLKPEDTAVYYCDKRGYYHYYWGQGTQVTVSS” the “polyreactivity (PSR sort gate)” value was “high polyreactivity”.
With “QVQLVESGGGLVQAGGSLRLSCAASGTTFPKYAMGWYRQAPGKERELVAAITRGGRTYYADSVKGRFTISRDNANNTVYLQMNSLKPEDTAVYYCAVVGYARVGMYDYWGQGSQVTVSS” the “polyreactivity (PSR sort gate)” value was “high polyreactivity”.
For “QVQLVESGGGLVQAGGSLRLSCAASGTTFTRYAMGWYRQAPGKERELVAAISRTGGSRTYYADSVKGRFTISRDNAKNTVYLHMNSLKPEDTAVYYCAKGYWRYLGFLYFFPARDYWGQGTQVTVSS”, the “polyreactivity (PSR sort gate)” value was “high polyreactivity”.
In the case of “QVQLVESGGGLVQAGGSLRLSCAASGTTFYNYAMGWYRQAPGQERELVAAISKTGGSTYYADSVKGRFTISRDNAKNTVYLQMNSLKPEDTAVYYCNAVALYPYTTYHYWGQGTQVTVSS”, the “polyreactivity (PSR sort gate)” value is reported as “high polyreactivity”.
For “QVQLVESGGGLVQAGGSLRLSCAASGTTYYNAMGWYRQAPGKERELVAAIRFRSGSTYYADSVKGRFTISRDNAKNTVFLQMNSLKPEDTAVYYCNIVPYRGYRRYGYWGQGTHVTVSS”, the “polyreactivity (PSR sort gate)” value was “high polyreactivity”.
With “QVQLVESGGGLVQAGGSLRLSCAASGVIFSLYAMGWYRQAPGKERELVAVITWSDGRTYYADSVKGRFTISRDNAKNTVYLQMNSLKPEDTAVYYCAAADWITEYDYWGQGTHVTVSS” the “polyreactivity (PSR sort gate)” value was “low polyreactivity”.
For “QVQLVESGGGLVQAGGSLRLSCAASGVIFWEYAMGWYRQAPGKERELVAAISTSGGSTYYADSVKGRFTISRDNAKNTVYLQMISLKPEDTAVYYCAVDGWDDTYFRQDMDYWGQGTQVTVSS”, the “polyreactivity (PSR sort gate)” value was “low polyreactivity”.
With “QVQLVESGGGLVQAGGSLRLSCAASGVIFYDYAMGWYRQAPGKERELVAAISSGGSTNYADSVKGRFTISRDNAKNTVYLQMNSLKPEDTAVYYCAADDRSYATWKRDYDYWGQGTQVTVSS” the “polyreactivity (PSR sort gate)” value was “low polyreactivity”.
In the case of “QVQLVESGGGLVQAGGSLRLSCAASGVIFYRYAMGWYRQAPGKERELVAAITRSGGTTYYADSVKGRFTISRDNAKNTVYLQMNSLKPEDTAVYYCAARVTPGRNGGGYWGQGTQVTVSS”, the “polyreactivity (PSR sort gate)” value is reported as “high polyreactivity”.
With “QVQLVESGGGLVQAGGSLRLSCAASGVILYFHAMGWYRQAPGKERELVAAITSDGGSTYYADSVKGRFTISRDDAKNTVYLQMNSLKPEDTAVYYCAADASTWYTEEYWGQGTQVTVSS” the “polyreactivity (PSR sort gate)” value was “low polyreactivity”.
In the case of “QVQLVESGGGLVQAGGSLRLSCAASGVNAMGWYRQAPGKEREIVAAITSIGGSTYYADSVKGRFTISRDNAKNTVSLQMNSLKPEDTAVYYCNTDRGPVKVSPLYESWGQGTQVTVSS”, the “polyreactivity (PSR sort gate)” value is reported as “low polyreactivity”.
For “QVQLVESGGGLVQAGGSLRLSCAASGVTFIYYTMGWYRQAPGKERDLVATISRRGDSPYYADSVKGRFTISRDNAKNTVYLQMNSLKPEDTAVYYCNAVTRAAYWWTARSTDYDYWGQGTLVTVSS”, the “polyreactivity (PSR sort gate)” value was “high polyreactivity”.
In the case of “QVQLVESGGGLVQAGGSLRLSCAASGVTFNYNAMGWYRQAPGKERELVATITGSTYYADSVKGRFTISRDNAKNTVYLQMNSLKPEDTAVYYCTADASLVLAEYDYWGQGTQVTVSS”, the “polyreactivity (PSR sort gate)” value is reported as “low polyreactivity”.
For “QVQLVESGGGLVQAGGSLRLSCAASGVTFSLNTMGWYRQSPGKERELVAAINSGDSTYADSVKGRFTISRDNAKNTVYVQMNSLKPEDTAVYYCTADPDWWYPYNYWGQGTQVTVSS”, the “polyreactivity (PSR sort gate)” value was “low polyreactivity”.
For “QVQLVESGGGLVQAGGSLRLSCAASGYICVRYAMGWYRQAPGKEREFVAAISSSGGSTRYADSVKGRFTISRDNAKNTVYLQMNSLKPEDTAVYYCAATRVARHGSPMYYWGQGTQVTVSS”, the “polyreactivity (PSR sort gate)” value was “high polyreactivity”.
With “QVQLVESGGGLVQAGGSLRLSCAASGYIFAYNTMGWYRQAPGKERELVAAISRSGGSTYYADSVKGRFTISRDNAKNTVYLQMNSLKPEDTAVYYCAARYAPLDFRFDYWGQGTQVTVSS” the “polyreactivity (PSR sort gate)” value was “high polyreactivity”.
For “QVQLVESGGGLVQAGGSLRLSCAASGYIFDIYDMGWYRQATGKERELVAAITDYADSVKGRFTISRDNAKNTVYLQMNSLKPEDTAVYYCNVKFLVQPVTSVIGDYWGQGTQVTVSS”, the “polyreactivity (PSR sort gate)” value was “low polyreactivity”.
In the case of “QVQLVESGGGLVQAGGSLRLSCAASGYIFDRYAMGWYRQAPGKERELVATITRRGGSTYYADSVKGRFTISRDNAKNTVYLQMNSLKPEDSAVYYCAKRSPGTYIAMGYWGQGTQVTVSS”, the “polyreactivity (PSR sort gate)” value is reported as “high polyreactivity”.
With “QVQLVESGGGLVQAGGSLRLSCAASGYIFERNAMGWYRQAPGKERELVAAITDDGDDTYYADSVKGRFTISRDNAKNTVYLQMNSLKPEETAVYYCAKDLYYGDYYYWGQGTQVTVSS” the “polyreactivity (PSR sort gate)” value was “low polyreactivity”.
With “QVQLVESGGGLVQAGGSLRLSCAASGYIFFGNAMGWYRQAPGKERELVAAIRGRGTSTYYADSVKGRFTISRDNAKNTVYLQMNSLKPEDTAVYYFDADVVRSNFYGTFMYDYDYWGQGTQVTVSS” the “polyreactivity (PSR sort gate)” value was “low polyreactivity”.
In the case of “QVQLVESGGGLVQAGGSLRLSCAASGYIFFNYGMGWYRQAPGKERELVAASTTIDGTTYYADSVKGRFTISRDNAKHTVYLQMNSLKPEDTAVYYCNADLYWLWYGEFDYWGQGTQVTVSS”, the “polyreactivity (PSR sort gate)” value is reported as “high polyreactivity”.
With “QVQLVESGGGLVQAGGSLRLSCAASGYIFFRYAMGWYRQAPGKERELVAAINSSGDSTYADSVKGRFTISRDNAKNTVYLQMNSLKPEDTAVYYCNKDAPLFHDIIIDMDYWGQGTQVTVSS” the “polyreactivity (PSR sort gate)” value was “low polyreactivity”.
In the case of “QVQLVESGGGLVQAGGSLRLSCAASGYIFGLYAMGWYRQAPGKERELVASITGGGSTYADSVKGRFTISRDNAKNTVYLQMISLKPEDTAVYYCAAESTVRPYEHSGDYWGQGTQVTVSS”, the “polyreactivity (PSR sort gate)” value is reported as “low polyreactivity”.
With “QVQLVESGGGLVQAGGSLRLSCAASGYIFGSYVMGWYRQAPGKERELVAAITRIGASTYFADSVKGRFTISRDNAKNTVYLQMNSLKPDDTAVFYCATDQGGYYENDYWGQGTQVTVSS” the “polyreactivity (PSR sort gate)” value was “low polyreactivity”.
For “QVQLVESGGGLVQAGGSLRLSCAASGYIFGSYVMGWYRQAPGKERELVAAITRIGASTYYEDSVKGRFTISRDTAKNTVYIQMNSLKPDDTAVYDCATDQGGYYENDYWGQGTQVTVSS”, the “polyreactivity (PSR sort gate)” value was “low polyreactivity”.
In the case of “QVQLVESGGGLVQAGGSLRLSCAASGYIFGVYAMGWYRQAPGKERELVAAISIGGSTYYADSVKGPFTISRDNAKNTVYLQMNSLKPEDTAVYYCAARGWIRKTSSAYGYWGQGTQVTVSS”, the “polyreactivity (PSR sort gate)” value is reported as “high polyreactivity”.
For “QVQLVESGGGLVQAGGSLRLSCAASGYIFGVYAMGWYRQAPGKERELVAVITVTGGSTYYADSVKGRFTISRDNAKNTVYLQMNSLKPEDTAVYYCNTLEYLEYDYWGQGTQVTVSS”, the “polyreactivity (PSR sort gate)” value was “high polyreactivity”.
For “QVQLVESGGGLVQAGGSLRLSCAASGYIFKSYVMGWYRQAPGKERELVAAISWGGGRTYYADSVKGRFTISRDNAKNTVYLQMNSLKPEDTAVYYCAADTKVGNGIKFDYWGQGTQVTVSS”, the “polyreactivity (PSR sort gate)” value was “high polyreactivity”.
With “QVQLVESGGGLVQAGGSLRLSCAASGYIFKTYDMGWYRQAPGKETELVAAITASGGSTSYADSVKGRFTISRDNAKNTVYLQMNSLKPEDTAVYYCAAVYVRFKAERGVYLYPYDYWGQGTQVTVSS” the “polyreactivity (PSR sort gate)” value was “high polyreactivity”.
For “QVQLVESGGGLVQAGGSLRLSCAASGYIFKWYAMGWYIQAPGKERELVAAITWSGDTTYYADSVKGRFTISRDNAQNTVYLQMNSLKPVDTAVYYCAVERDDQDYVYWGQGTQVTVSS”, the “polyreactivity (PSR sort gate)” value was “low polyreactivity”.
With “QVQLVESGGGLVQAGGSLRLSCAASGYIFKYYAKGWYRQAPGKERELVAAISWDGTDTYYADSVKGRFTISRDNAKNTVYLQMNSLIPEDTAVYYCNADYDVYGWRNYWGQGTHVTVSS” the “polyreactivity (PSR sort gate)” value was “low polyreactivity”.
With “QVQLVESGGGLVQAGGSLRLSCAASGYIFLPYAMGWYRQARGKEREVVAAIRWSGGSTYYADSVKGRFTISRDNAKNTVYLQMNSLKPEDTAVYYCAAYYVARDRRYPKAYSYEYWGQGTQVTVLS” the “polyreactivity (PSR sort gate)” value was “high polyreactivity”.
With “QVQLVESGGGLVQAGGSLRLSCAASGYIFLWYAMGWYRQAPGKERELVASISSGSTYYADSVKGRFTISRDNAKNTVYLLMNSLKPEDTAVYYCAAGWFASDYYYWGQGTQVTVSS” the “polyreactivity (PSR sort gate)” value was “low polyreactivity”.
For “QVQLVESGGGLVQAGGSLRLSCAASGYIFPKNAMGWYRQAPGKERELVAAITGSGGSTYYADSVKGRFTISRDNAKNTVYLQMNSLKPEDTAVYYCAKRSWIEYDYWGQGTQVTVSS”, the “polyreactivity (PSR sort gate)” value was “low polyreactivity”.
With “QVQLVESGGGLVQAGGSLRLSCAASGYIFPPNAMGWYRQAPGKDRELVAAIRRSTGSTYYADSVKGRFTISRDNAKNTVYLQMNSLKPEDTAVYYCAAYYGYITFGYTYEYWGQGSQVTVSS” the “polyreactivity (PSR sort gate)” value was “high polyreactivity”.
With “QVQLVESGGGLVQAGGSLRLSCAASGYIFPSYAMGWYRQAPGKERELVAVITTRGSTYYADSVKGRFTISRDNAKNTVYLQMNSVKAEETAVYYCAAAPYVYWFFVRPYGDDYWGLGTQVTVSS” the “polyreactivity (PSR sort gate)” value was “high polyreactivity”.
For “QVQLVESGGGLVQAGGSLRLSCAASGYIFQKNAMGWYRQAPGKERELVAAISSGTDRTYYADSVKGRFTISRDNAKYTVYLQMNSLKPDDTAVYYCAARYWGGYYYWGQGTQVTVSS”, the “polyreactivity (PSR sort gate)” value was “high polyreactivity”.
In the case of “QVQLVESGGGLVQAGGSLRLSCAASGYIFRAYAMGWYRQAPGKERELVAAITKRSGTTYYADSVKGRFTISRDNAKNTVYLQMNSLKPEDTAVYYCAAKTLYNSGTQDRAMGYWGQGTQVTVSS”, the “polyreactivity (PSR sort gate)” value is reported as “high polyreactivity”.
With “QVQLVESGGGLVQAGGSLRLSCAASGYIFRSYAMGWYRQAPGKERELVAAITRSGGSTYYADSVKGRFTISRDNAKNTVYLQMNSPKPEDTAVYYCAVLPRGSNGMDYWGQGTQVTVSS” the “polyreactivity (PSR sort gate)” value was “low polyreactivity”.
In the case of “QVQLVESGGGLVQAGGSLRLSCAASGYIFSGYAMGWYRQAPGKEMELVAAISSNGGSTYYADSVKGRFTISRDNAKNTVYLQMNSLKPEDTAVYYCNRGLAARVGRGDYWGQGTQVTVSS”, the “polyreactivity (PSR sort gate)” value is reported as “low polyreactivity”.
With “QVQLVESGGGLVQAGGSLRLSCAASGYIFSYYAMGWNRPAPGKERELVATISSGGSTNYADSVKGRFTISRDNAKNTVYLQMNSLKPEDTAVYYCAATIGHNGFYYWGQGTLVTVSS” the “polyreactivity (PSR sort gate)” value was “low polyreactivity”.
With “QVQLVESGGGLVQAGGSLRLSCAASGYIFTGNAMGWYRQAPGKEREFVAAISWSGGSTYYADSVKGRFTISRDNAKNTVYLQMNSLKPEDTAVYDCNKYRPYGRIYHLAYGRDDWGQGTQVTVSS” the “polyreactivity (PSR sort gate)” value was “high polyreactivity”.
With “QVQLVESGGGLVQAGGSLRLSCAASGYIFTGNAMGWYRQAPGKERELVAAISKSGSRTYYADSVKGRFTISRDNAKNTVYLQMNSLKPEDTAVYYCNAYSARDSELDYWGQGTQVTVSS” the “polyreactivity (PSR sort gate)” value was “high polyreactivity”.
